# Patent publication US20240309103A1 (Regeneron, published 2024)
# T1: mfNPR1-mFc (monkey)
# T1 construct: also called dimeric monkey NPR1
# T1 chain: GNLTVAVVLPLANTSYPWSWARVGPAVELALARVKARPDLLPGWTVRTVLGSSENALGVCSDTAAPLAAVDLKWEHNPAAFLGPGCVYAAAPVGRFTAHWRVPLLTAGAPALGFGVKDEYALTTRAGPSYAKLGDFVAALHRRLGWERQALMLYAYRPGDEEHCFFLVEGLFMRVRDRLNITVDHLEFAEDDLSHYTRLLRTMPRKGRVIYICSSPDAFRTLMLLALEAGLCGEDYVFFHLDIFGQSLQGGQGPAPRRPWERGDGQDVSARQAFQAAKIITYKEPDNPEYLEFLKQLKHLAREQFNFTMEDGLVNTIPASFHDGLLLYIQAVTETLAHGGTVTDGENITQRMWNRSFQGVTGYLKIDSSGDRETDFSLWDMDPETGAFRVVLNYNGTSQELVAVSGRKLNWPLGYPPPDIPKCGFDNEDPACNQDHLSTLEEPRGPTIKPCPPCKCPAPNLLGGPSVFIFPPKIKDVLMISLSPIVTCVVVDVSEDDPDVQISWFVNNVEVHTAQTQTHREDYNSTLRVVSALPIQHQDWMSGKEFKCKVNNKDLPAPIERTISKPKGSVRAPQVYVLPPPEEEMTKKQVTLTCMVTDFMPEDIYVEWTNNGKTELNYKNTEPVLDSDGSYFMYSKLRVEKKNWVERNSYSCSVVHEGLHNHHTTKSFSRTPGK
# B1: mAb22035 (antibody, human IgG4, V domains shown)
# VH: EVQLVESGGGLVQPGRSLRLSCAASGFTFDDYAMHWVRQAPGKGLEWVSGISWNSGTIGYADSVKGRFTMSRDNAKNSLYLQMNSLRPEDTALYYCAKDMGVSLALWGAFDIWGQGTMVTVSS
# VL: DIQMTQSPSSLSASVGDKVTITCRASQNIRTYLNWYQQKPGKAPKVLISTASSLQSGVPSRFSGSGSGTDFTLTISSLQPEDFAVFYCQQSFGIPRTFGQGTKVEIK
# B2: mAb22809 (antibody, human IgG4, V domains shown)
# VH: QLQLRESGPGLVKPSETLSLTCTVSGGSINDNSFFWDWIRQTPGRGLEWIGNIFFDGNTYYTPSLKSRVIISVDMSQNQFSLRLTSVTAADTALYYCARHKRSMTAWGFFDYWGQGTLVTVSS
# VL: DIQMTQSPSSLSASVGDRVTITCRASKRINTYLNWYQQKPGKAPKVLIYSASNLQSGVPSRFSGSGSGTDFTLTINSLQPEDFATYFCQQSFSAPPITFGQGTRLEIK
# Experiments:
# [1] = target: T2, hNPR1-mFc:hANP or hNPR1-hFc:hANP complex (human, UniProt P01160 124-151); assay: SPR, mAb captured, 25C
# T2 construct: also called human NPR1 complexed to ANP
# Method: (§1) Equilibrium dissociation constant (KD) for different NPR1 reagents binding to purified anti-NPR1 monoclonal antibodies (mAbs) were determined using a real-time surface plasmon resonance based Biacore 4000 biosensor. All binding studies were performed in 10 mM HEPES, 150 mM NaCl, 3 mM EDTA, and 0.05% v/v Surfactant Tween-20, pH 7.4 (HBS-ET) running buffer at 25° C. and 37° C. The Biacore CM5 sensor chip surface was first derivatized by amine coupling with either mouse anti-human Fc specific mAb (GE Healthcare, #BR100839) or goat anti-human Fcy specific polyclonal antibody (Jackson ImmunoResearch Laboratories, #BR-1008-39) to capture anti-NPR1 mAbs.
# hNPR1-mFc:hBNP complex [2] = target: T3, hNPR1-mFc:hBNP complex (human, UniProt P16860 103-134); assay: SPR, mAb captured, 25C
# T3 construct: also called human NPR1 complexed to BNP
# Method: as §1
# mfNPR1-mFc [3] = target: T1, mfNPR1-mFc; assay: SPR, mAb captured, 25C
# Method: as §1
# mfNPR1-mFc:hANP complex [4] = target: T4, mfNPR1-mFc:hANP complex (monkey; human, UniProt P01160 124-151); assay: SPR, mAb captured, 25C
# T4 construct: also called monkey NPR1 complexed to ANP
# Method: as §1
# mfNPR1-mFc:hBNP complex = target: T5, mfNPR1-mFc:hBNP complex (monkey; human, UniProt P16860 103-134); assay: SPR, mAb captured, 25C
# T5 construct: also called monkey NPR1 complexed to BNP
# Method: as §1
# [5] = target: T2, hNPR1-mFc:hANP or hNPR1-hFc:hANP complex; assay: SPR, mAb captured, 37C
# Method: as §1
# hNPR1-mFc:hBNP complex [6] = target: T3, hNPR1-mFc:hBNP complex; assay: SPR, mAb captured, 37C
# Method: as §1
# mfNPR1-mFc [7] = target: T1, mfNPR1-mFc; assay: SPR, mAb captured, 37C
# Method: as §1
# mfNPR1-mFc:hANP complex [8] = target: T4, mfNPR1-mFc:hANP complex; assay: SPR, mAb captured, 37C
# Method: as §1
binder,measurement,setting,value
B1,100 nM Ag Bound (RU),[1],186 RU
same,Kd,[1],0.434 nM
same,koff,[1],7.78e-05 s⁻¹
same,kon,[1],179000 M⁻¹ s⁻¹
same,t½,[1],2.47 h
same,100 nM Ag Bound (RU),hNPR1-mFc:hBNP complex [2],194 RU
same,Kd,hNPR1-mFc:hBNP complex [2],0.508 nM
same,koff,hNPR1-mFc:hBNP complex [2],8.7e-05 s⁻¹
same,kon,hNPR1-mFc:hBNP complex [2],171000 M⁻¹ s⁻¹
same,t½,hNPR1-mFc:hBNP complex [2],2.21 h
same,100 nM Ag Bound (RU),mfNPR1-mFc [3],231 RU
same,Kd,mfNPR1-mFc [3],0.229 nM
same,koff,mfNPR1-mFc [3],5.57e-05 s⁻¹
same,kon,mfNPR1-mFc [3],244000 M⁻¹ s⁻¹
same,t½,mfNPR1-mFc [3],3.45 h
same,100 nM Ag Bound (RU),mfNPR1-mFc:hANP complex [4],227 RU
same,Kd,mfNPR1-mFc:hANP complex [4],0.246 nM
same,koff,mfNPR1-mFc:hANP complex [4],4.66e-05 s⁻¹
same,kon,mfNPR1-mFc:hANP complex [4],189000 M⁻¹ s⁻¹
same,t½,mfNPR1-mFc:hANP complex [4],4.13 h
same,100 nM Ag Bound (RU),mfNPR1-mFc:hBNP complex,231 RU
same,Kd,mfNPR1-mFc:hBNP complex,0.3 nM
same,koff,mfNPR1-mFc:hBNP complex,6.13e-05 s⁻¹
same,kon,mfNPR1-mFc:hBNP complex,205000 M⁻¹ s⁻¹
same,t½,mfNPR1-mFc:hBNP complex,3.14 h
same,100 nM Ag Bound (RU),[5],237 RU
same,Kd,[5],0.508 nM
same,koff,[5],0.000114 s⁻¹
same,kon,[5],225000 M⁻¹ s⁻¹
same,t½,[5],1.68 h
same,100 nM Ag Bound (RU),hNPR1-mFc:hBNP complex [6],243 RU
same,Kd,hNPR1-mFc:hBNP complex [6],0.553 nM
same,koff,hNPR1-mFc:hBNP complex [6],0.000128 s⁻¹
same,kon,hNPR1-mFc:hBNP complex [6],232000 M⁻¹ s⁻¹
same,t½,hNPR1-mFc:hBNP complex [6],1.5 h
same,100 nM Ag Bound (RU),mfNPR1-mFc [7],291 RU
same,Kd,mfNPR1-mFc [7],0.184 nM
same,koff,mfNPR1-mFc [7],8.44e-05 s⁻¹
same,kon,mfNPR1-mFc [7],459000 M⁻¹ s⁻¹
same,t½,mfNPR1-mFc [7],2.28 h
same,100 nM Ag Bound (RU),mfNPR1-mFc:hANP complex [8],283 RU
same,Kd,mfNPR1-mFc:hANP complex [8],0.302 nM
same,koff,mfNPR1-mFc:hANP complex [8],7.7e-05 s⁻¹
same,kon,mfNPR1-mFc:hANP complex [8],255000 M⁻¹ s⁻¹
same,t½,mfNPR1-mFc:hANP complex [8],2.5 h
B2,100 nM Ag Bound (RU),[1],53 RU
same,Kd,[1],4.94 nM
same,koff,[1],0.000193 s⁻¹
same,kon,[1],39200 M⁻¹ s⁻¹
same,t½,[1],0.995 h
same,100 nM Ag Bound (RU),hNPR1-mFc:hBNP complex [2],51 RU
same,Kd,hNPR1-mFc:hBNP complex [2],6.72 nM
same,koff,hNPR1-mFc:hBNP complex [2],0.000221 s⁻¹
same,kon,hNPR1-mFc:hBNP complex [2],32800 M⁻¹ s⁻¹
same,t½,hNPR1-mFc:hBNP complex [2],0.873 h
same,100 nM Ag Bound (RU),mfNPR1-mFc [3],6 RU
same,binding result,mfNPR1-mFc [3],no binding (tested: 100 nM)
same,100 nM Ag Bound (RU),mfNPR1-mFc:hANP complex [4],86 RU
same,Kd,mfNPR1-mFc:hANP complex [4],3.88 nM
same,koff,mfNPR1-mFc:hANP complex [4],0.000173 s⁻¹
same,kon,mfNPR1-mFc:hANP complex [4],44700 M⁻¹ s⁻¹
same,t½,mfNPR1-mFc:hANP complex [4],1.11 h
same,100 nM Ag Bound (RU),mfNPR1-mFc:hBNP complex,80 RU
same,Kd,mfNPR1-mFc:hBNP complex,3.85 nM
same,koff,mfNPR1-mFc:hBNP complex,0.00016 s⁻¹
same,kon,mfNPR1-mFc:hBNP complex,41400 M⁻¹ s⁻¹
same,t½,mfNPR1-mFc:hBNP complex,1.21 h
same,100 nM Ag Bound (RU),[5],68 RU
same,Kd,[5],3.29 nM
same,koff,[5],0.000166 s⁻¹
same,kon,[5],50400 M⁻¹ s⁻¹
same,t½,[5],1.16 h
same,100 nM Ag Bound (RU),hNPR1-mFc:hBNP complex [6],63 RU
same,Kd,hNPR1-mFc:hBNP complex [6],3.56 nM
same,koff,hNPR1-mFc:hBNP complex [6],0.000166 s⁻¹
same,kon,hNPR1-mFc:hBNP complex [6],46500 M⁻¹ s⁻¹
same,t½,hNPR1-mFc:hBNP complex [6],1.16 h
same,100 nM Ag Bound (RU),mfNPR1-mFc [7],8 RU
same,100 nM Ag Bound (RU),mfNPR1-mFc:hANP complex [8],106 RU
same,Kd,mfNPR1-mFc:hANP complex [8],3.7 nM
same,koff,mfNPR1-mFc:hANP complex [8],0.000205 s⁻¹
same,kon,mfNPR1-mFc:hANP complex [8],55500 M⁻¹ s⁻¹
same,t½,mfNPR1-mFc:hANP complex [8],0.937 h
